Assay [1] deals with human P-cadherin W2A mutant ectodomain (EC1-5) (human). The assay is described as follows: single-molecule AFM force spectroscopy; as the -CQY experiment but with 40 nM CQY684 Fab in the buffer (+CQY); Pcad EC1-5 on cantilever and substrate; 1 µm/s; Tris buffer pH 7.5 with 2.5 mM CaCl2.
For assay [2] the target is unchanged. As to the kind of experiment: single-molecule AFM force spectroscopy; biotinylated Pcad EC1-5 held by streptavidin on PEG tethers on both the cantilever and the glass substrate; no CQY684 (-CQY); tip retracted at 1 µm/s; Tris buffer pH 7.5, 10 mM Tris-HCl, 100 mM NaCl, 10 mM KCl, 2.5 mM CaCl2; peak forces from Gaussian fits of unbinding force histograms.
Assay [3] addresses human P-cadherin K14E mutant ectodomain (EC1-5) (human). The assay is described as follows: single-molecule AFM force spectroscopy; as the -CQY experiment but with 40 nM CQY684 Fab in the buffer (+CQY); Pcad EC1-5 on cantilever and substrate; 1 µm/s; Tris buffer pH 7.5 with 2.5 mM CaCl2.
The target is the same in assay [4]. As to the kind of experiment: single-molecule AFM force spectroscopy; biotinylated Pcad EC1-5 held by streptavidin on PEG tethers on both the cantilever and the glass substrate; no CQY684 (-CQY); tip retracted at 1 µm/s; Tris buffer pH 7.5, 10 mM Tris-HCl, 100 mM NaCl, 10 mM KCl, 2.5 mM CaCl2; peak forces from Gaussian fits of unbinding force histograms.

The values that follow come from publication PMC11779849.

As for “human P-cadherin W2A mutant ectodomain (EC1-5) (domain or fragment)”, in assay [1], the peak unbinding force, first Gaussian (with 40 nM CQY684) came out at 35.1 pN and the peak unbinding force, second Gaussian (with 40 nM CQY684) worked out at 55.8 pN. The peak unbinding force in assay [2] is 24.5 pN.
As for “human P-cadherin K14E mutant ectodomain (EC1-5) (domain or fragment)”, the peak unbinding force (with 40 nM CQY684) in assay [3] was determined as 31 pN. This substance registered a peak unbinding force in assay [4] of 33.1 pN.
